Kd and dH data for 2 molecules are collected here from publication PMC11429574, “Biophysical and Solution Structure Analysis of Critical Residues Involved in the Interaction between the PupB N-Terminal Signaling Domain and PupR C-Terminal Cell Surface Signaling Domain from Pseudomonas capeferrum” (Biomolecules, 2024).

What is called Kd is the equilibrium constant for the complex coming apart. A low value points to higher affinity.

T1: PupB N-terminal signaling domain H72D (Pseudomonas capeferrum), P38047
T1 chain: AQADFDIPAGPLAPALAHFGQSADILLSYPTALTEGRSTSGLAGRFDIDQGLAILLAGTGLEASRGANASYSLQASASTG

B1: PupB N-terminal signaling domain Q69K (domain or fragment, Pseudomonas capeferrum)
chain: T1 chain with Q21K, D24H
notes: PupB of Pseudomonas capeferrum, N-terminal signaling domain, 82 residues; also called PupB NTSD Q69K; Q79K (misprint in two places); source: pET41 GST-PupB NTSD plasmid
B2: MBP-PupR C-terminal cell surface signaling domain (domain or fragment, Pseudomonas capeferrum)
chain: QDWRADYHSRIGEQRRLTLADGTQVQLNTDSALNVAFDQQARRLRLVRGEMLITRPALADSRPLWVDTEHGRLESTLAQFNVRLHGQHTQATVYQGSVALQPALHAYPPILLGAGEQASFNQQGLLARQAVAAVAPAWSQGMLVAQGQPLAAFIEDLARYRRGHLACDPALAGLRVSGTFPLENTDKIIAAVAETLQLEVQHFTRYWVTLKPRMA
notes: PupR, inner membrane sigma regulator (anti-sigma factor) of Pseudomonas capeferrum; periplasmic C-terminal cell surface signaling domain; residues A240 to A300 are named as interface residues; A TEV site lies between MBP and the domain; the MBP fusion was used uncleaved in the ITC for solubility and stability; also called MBP-PupR CCSSD; PupR CCSSD; not shown: MBP, N-terminal, kept

Holding throughout (experiment): ITC; MBP-PupR CCSSD (140-230 µM) titrated into PupB NTSD mutants (20-70 µM); 15 °C; 25 mM HEPES pH 7.5, 400 mM LiCl, 10% glycerol; triplicate, global single-site analysis (NITPIC, SEDPHAT)
Background: In ITC the heat of successive injections is recorded.

Assay [1] concerns the target B2. The settings on record: both partners purified.
The target in assay [2] is B1. Particulars: both partners purified.
Assay [3] concerns the target T1, PupB N-terminal signaling domain H72D …. The settings on record: remark: other sources report otherwise.

Where a chain is given by its changes, count along the chain named. Names may count otherwise.

For B1, binding in assay [1] was characterised by a dissociation constant (Kd) of 1.55 µM.
B2: the dH in assay [2] was -14.5 kcal/mol. Also, in assay [3], the Kd was 27.7 µM and the dH was -23 kcal/mol.
